This note sets out measurements from article PMC10705377.

The assay has as its target GluA2-TARPγ2 fusion construct (rat GluA2, GT linker, mouse TARPγ2 truncated following M4) (rat | mouse). Description: cryo-EM structure.

As a reminder, the stoichiometry N is the number of molecules, sites or subunits per partner or assembly. On to “GluA2-TARPγ2 fusion construct (rat GluA2, GT linker, mouse TARPγ2 truncated following M4) (receptor)”, for which the stoichiometry N was 4.
